Test results reported in the supplement of paper PMC10126150.
± gives the standard deviation of the averaged measurements.

Test system: ATP
Assay: switch fluorescence ratio, 500 uM ATP over buffer (Cy3 cluster intensity, sum of 5 cycles each) (fold (ratio)); higher = stronger signal-on switching upon ATP binding; sequences stand for … in TCGTCGGCAGCGTCAGATGTGTATAAGAGACAGTTTTTTTTTTTTTTTTTTTTTTTTT…TC
Conditions: aptamer strand: ATP DNA aptamer (quencher-CACCTGGGGGAGTATTGCGGAGGAAGG + anchor), 100 nM annealed; ATP concentration: 500 uM
Outline: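 Values give the fluorescence ratio for each switch-domain sequence, averaged from per-cluster ratios of summed target-cycle to summed buffer-cycle Cy3 intensity. The Cy3-labelled switching-strand clusters sat on a modified Illumina MiSeq flow-cell, were annealed to 100 nM quencher-labelled ATP aptamer, and were imaged in selection buffer, then after 15 min with 500 uM ATP at 22 °C. Five cycles ran with NaOH stripping and re-annealing between them, and clusters outside 100-1000 RFU were excluded.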
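Also: ATP exposure 15 min at 22 °C before imaging.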

| Sequence | switch fluorescence ratio |
| --- | --- |
| GCGAGGAATA | 1.2 ± 0.079 |
| GCGAGGGAAC | 1.03 ± 0.015 |
| GCGAGGGTTC | 0.991 ± 0.029 |
| GCGAGTACGA | 1.02 ± 0.032 |
| GCGAGTCATT | 0.9845 ± 0.007 |
| GCGAGTCTCG | 1.03 ± 0.044 |
| GCGAGTGTAC | 0.983 ± 0.094 |
| GCGAGTGTTT | 1.02 ± 0.048 |
| GCGATAGTTG | 1.02 ± 0.053 |
| GCGATATAGC | 1.03 ± 0.027 |
| GCGATATGTG | 1.013 ± 0.0073 |
| GCGATCAATT | 1.14 ± 0.051 |
| GCGATCAGAG | 1.04 ± 0.037 |
| GCGATGGTGT | 1.02 ± 0.008 |
| GCGATTATGG | 0.977 ± 0.019 |
| GCGATTCCAG | 1.02 ± 0.0065 |
| GCGATTTGGC | 1.01 ± 0.056 |
| GCGCAACTGG | 1.352 ± 0.0074 |
| GCGCAGAACG | 1.07 ± 0.015 |
| GCGCAGCTCG | 0.9814 ± 0.0084 |
| GCGCATATTG | 1.051 ± 0.0021 |
| GCGCCGGGGG | 1.03 ± 0.018 |
| GCGCGCACAC | 1.05 ± 0.019 |

| Sequence | switch fluorescence ratio |
| --- | --- |
| GCGCGCTGGG | 0.9646 ± 0.0044 |
| GCGCGGGGGT | 1.08 ± 0.032 |
| GCGCGGTGTT | 0.988 ± 0.026 |
| GCGCGTGAGC | 1.061 ± 0.0011 |
| GCGCTAATGT | 1.08 ± 0.013 |
| GCGCTACAGT | 1.021 ± 0.0069 |
| GCGCTACGTG | 1.01 ± 0.026 |
| GCGCTCAGAT | 1.02 ± 0.028 |
| GCGCTCAGGT | 1.09 ± 0.13 |
| GCGCTGCTGT | 1.04 ± 0.038 |
| GCGCTGGCGG | 1.01 ± 0.024 |
| GCGCTGTTGG | 0.9996 ± 0.0035 |
| GCGCTTGGGA | 1.03 ± 0.056 |
| GCGCTTGTAC | 2.36 ± 0.55 |
| GCGCTTGTTG | 0.998 ± 0.013 |
| GCGGAAGGGG | 0.988 ± 0.015 |
| GCGGACGGGT | 0.969 ± 0.019 |
| GCGGAGACTG | 0.962 ± 0.069 |
| GCGGAGGCGT | 0.984 ± 0.01 |
| GCGGAGGCTG | 0.97393 ± 0.00027 |
| GCGGAGGTTT | 0.973 ± 0.034 |
| GCGGAGTTGT | 1.02 ± 0.035 |
| GCGGCAAGGG | 1.03 ± 0.035 |

| Sequence | switch fluorescence ratio |
| --- | --- |
| GCGGCACGGC | 1.01 ± 0.03 |
| GCGGCAGTCT | 1.03 ± 0.012 |
| GCGGCATTGG | 1.04 ± 0.053 |
| GCGGCCGGGG | 0.999 ± 0.024 |
| GCGGCGGATC | 0.987 ± 0.038 |
| GCGGCTTCTC | 1.018 ± 0.0072 |
| GCGGGACGTG | 0.9857 ± 0.0098 |
| GCGGGACTGT | 1.04 ± 0.046 |
| GCGGGAGGCT | 0.977 ± 0.028 |
| GCGGGCCTGT | 0.9967 ± 0.0099 |
| GCGGGCGGGG | 1.02 ± 0.05 |
| GCGGGCTTGG | 0.974 ± 0.015 |
| GCGGGGATGC | 1.03 ± 0.075 |
| GCGGGGCAAC | 1.01 ± 0.064 |
| GCGGGGCACA | 0.987 ± 0.022 |
| GCGGGGCGAA | 1.01 ± 0.012 |
| GCGGGGCGTA | 0.995 ± 0.016 |
| GCGGGGGCTT | 0.98 ± 0.033 |
| GCGGGGGTTC | 1.04 ± 0.05 |
| GCGGGGTCAG | 0.989 ± 0.025 |
| GCGGTAATCG | 1.03 ± 0.032 |
| GCGGTACACG | 1.01 ± 0.027 |
| GCGGTAGTCG | 1.02 ± 0.052 |

| Sequence | switch fluorescence ratio |
| --- | --- |
| GCGGTATAC | 2.72 ± 0.14 |
| GCGGTCGGTA | 1.03 ± 0.038 |
| GCGGTGACGG | 1 ± 0.062 |
| GCGGTGGATC | 1.04 ± 0.027 |
| GCGGTTCGAG | 0.9872 ± 0.0033 |
| GCGGTTGAGG | 1.001 ± 0.009 |
| GCGTAAAGTG | 0.994 ± 0.038 |
| GCGTAATGGT | 1.095 ± 0.0043 |
| GCGTAGTATT | 0.9954 ± 0.0085 |
| GCGTATACGG | 1.01 ± 0.028 |
| GCGTATATAA | 1.04 ± 0.044 |
| GCGTATGTAT | 1.002 ± 0.0068 |
| GCGTCAGGCG | 0.971 ± 0.026 |
| GCGTCAGGGG | 1.03 ± 0.086 |
| GCGTCAGGGT | 0.973 ± 0.027 |
| GCGTCAGTCG | 0.949 ± 0.015 |
| GCGTCTGGGG | 1.019 ± 0.0046 |
| GCGTCTTCAT | 0.979 ± 0.011 |
| GCGTCTTGTG | 1.02 ± 0.11 |
| GCGTCTTTGG | 0.988 ± 0.026 |
| GCGTGACGGG | 0.989 ± 0.037 |
| GCGTGAGCAC | 0.9745 ± 0.0089 |
| GCGTGATAAT | 1 ± 0.062 |

| Sequence | switch fluorescence ratio |
| --- | --- |
| GCGTGCATTA | 0.984 ± 0.034 |
| GCGTGCCGAC | 0.9793 ± 0.0041 |
| GCGTGTATGA | 1.02 ± 0.033 |
| GCGTGTATGG | 1.03 ± 0.03 |
| GCGTTAAAAG | 1.03 ± 0.02 |
| GCGTTAACGG | 1.02 ± 0.011 |
| GCGTTACGGG | 1.002 ± 0.0089 |
| GCGTTAGGGG | 0.979 ± 0.016 |
| GCGTTATACA | 0.9979 ± 0.0039 |
| GCGTTATTTG | 0.9878 ± 0.0073 |
| GCGTTCATAG | 0.995 ± 0.023 |
| GCGTTCGGCA | 0.991 ± 0.026 |
| GCGTTCTCGT | 0.989 ± 0.018 |
| GCGTTGAGGG | 0.952 ± 0.079 |
| GCGTTGATGT | 0.981 ± 0.017 |
| GCGTTGGG | 1.02 ± 0.029 |
| GCGTTGGGAG | 1.018 ± 0.0031 |
| GCGTTGGGCT | 0.949 ± 0.016 |
| GCGTTGGGGA | 1.02 ± 0.015 |
| GCGTTGGGGT | 1.01 ± 0.019 |
| GCGTTTAAAG | 0.994 ± 0.023 |
| GCGTTTCTAG | 0.992 ± 0.028 |
| GCGTTTGAAA | 1.01 ± 0.013 |

| Sequence | switch fluorescence ratio |
| --- | --- |
| GCGTTTTAGC | 0.995 ± 0.041 |
| GCGTTTTCGA | 1 ± 0.021 |
| GCTAAAAAAT | 0.98 ± 0.013 |
| GCTAAAAGGA | 0.975 ± 0.021 |
| GCTAAAATGG | 0.9916 ± 0.0076 |
| GCTAAATTAT | 0.963 ± 0.021 |
| GCTAACACGG | 1.048 ± 0.0053 |
| GCTAACTTTT | 1.03 ± 0.021 |
| GCTAAGTATG | 1.04 ± 0.043 |
| GCTAATAGTT | 1.01 ± 0.06 |
| GCTAATGTGC | 1.02 ± 0.018 |
| GCTACCTGGT | 1.02 ± 0.013 |
| GCTACGCAGC | 3.05 ± 1.8 |
| GCTACGGTAT | 1.13 ± 0.07 |
| GCTAGAATAT | 1.02 ± 0.014 |
| GCTAGAATGT | 1 ± 0.019 |
| GCTAGAGACG | 1.06 ± 0.054 |
| GCTAGATGGG | 1.01 ± 0.034 |
| GCTAGCGGAC | 1.14 ± 0.025 |
| GCTAGGGGA | 1.02 ± 0.011 |
| GCTAGGGGGA | 1.03 ± 0.05 |
| GCTAGTCTCA | 1.01 ± 0.028 |
| GCTAGTTGGT | 0.99 ± 0.017 |

| Sequence | switch fluorescence ratio |
| --- | --- |
| GCTAGTTGTA | 0.9995 ± 0.0074 |
| GCTAGTTTTT | 1 ± 0.022 |
| GCTATAAGCC | 1.05 ± 0.039 |
| GCTATATCTA | 1.02 ± 0.022 |
| GCTATATGTA | 1 ± 0.031 |
| GCTATCAGCG | 0.995 ± 0.023 |
| GCTATCTTTT | 1.02 ± 0.04 |
| GCTATGGGCG | 1.03 ± 0.033 |
| GCTATGTTTG | 0.9757 ± 0.0064 |
| GCTATTAAAG | 1 ± 0.026 |
| GCTATTATTT | 0.9845 ± 0.0027 |
| GCTATTGTGT | 0.9858 ± 0.0036 |
| GCTATTGTTT | 0.9633 ± 0.0082 |
| GCTATTTTCG | 0.99 ± 0.023 |
| GCTATTTTTT | 0.987 ± 0.022 |
| GCTCAAATGG | 1.04 ± 0.013 |
| GCTCAAGCGA | 1.464 ± 0.0035 |
| GCTCAATCTT | 0.967 ± 0.01 |
| GCTCAATTTA | 0.9689 ± 0.0083 |
